Reference: article PMC9543038 (Chembiochem, 2022)
Where no end group is shown, it is not given here. [ ]: non-standard residue; d: D form. pT = C[C@@H](OP(=O)(O)O)[C@H](N)C(=O)O; FAM = fluorescein

What was measured:
cross-linking = target: the molecule itself; test: cross-linking
FAM‐ERα‐pTV peptide [1] = target: T1, FAM‐ERα‐pTV peptide; test: fluorescence polarisation
T1 peptide: {FAM}-KYYITGEAEGFPA[pT]V

FAM‐ERα‐pTV peptide [2] = target: T1, FAM‐ERα‐pTV peptide; test: fluorescence polarisation
FAM‐ERα‐pTV peptide [3] = target: T1, FAM‐ERα‐pTV peptide; test: fluorescence polarisation

B1: His‐14‐3‐3γ (natural protein, UniProt P61981 1-247, looked up)
chain: MVDREQLVQKARLAEQAERYDDMAAAMKNVTELNEPLSNEERNLLSVAYKNVVGARRSSWRVISSIEQKTSADGNEKKIEMVRAYREKIEKELEAVCQDVLSLLDNYLIKNCSETQYESKVFYLKMKGDYYRYLAEVATGEKRATVVESSEKAYSEAHEISKEHMQPTHPIRLGLALNYSVFYYEIQNAPEQACHLAKTAFDDAIAELDTLNEDSYKDSTLIMQLLRDNLTLWTSDQQDDDGGEGNN
- stoichiometry N (cross-linking): 2

B2: recombinant N‐terminally GST‐tagged 14‐3‐3η (natural protein)
chain: MGDREQLLQRARLAEQAERYDDMASAMKAVTELNEPLSNEDRNLLSVAYKNVVGARRSSWRVISSIEQKTMADGNEKKLEKVKAYREKIEKELETVCNDVLSLLDKFLIKNCNDFQYESKVFYLKMKGDYYRYLAEVASGEKKNSVVEASEAAYKEAFEISKEQMQPTHPIRLGLALNFSVFYYEIQNAPEQACLLAKQAFDDAIAELDTLNEDSYKDSTLIMQLLRDNLTLWT
- pEC50 (FAM‐ERα‐pTV peptide [1]): 5.13
- pEC50 with FC-A (100 μM) (FAM‐ERα‐pTV peptide [2]): 6.16
- pEC50 with fragment 2 (1 mM) (FAM‐ERα‐pTV peptide [3]): 5.92
